B1: MYT1166 (antibody, V domains shown)
VH: EVQLVQSGAEVKKPGSSVKVSCKASGYTITDHNIHWVRQAPGQSLEWIGYIHPYNGGTDYNQKFKNRATLTVDNPTNTAYMELSSLRSEDTDFYYCVNGNPWLAYWGQGTLVTVSS
VL: DIQLTQSPSTLSASVGDRVTITCRASESLDNYGIRFLTWFQQKPGKAPKLLMYAASNQGSGVPSRFSGSGSGTEFTLTISSLQPDDFATYYCQQTKEVPWSFGQGTKVEVK
notes: IgG; gemtuzumab VH combination #5 (S32H+Y52H)
B2: MYT1167 (antibody, V domains shown)
VH: EVQLVQSGAEVKKPGSSVKVSCKASGYTITDHNIHWVRQAPGQSLEWIGYIYPHNGGTDYNQKFKNRATLTVDNPTNTAYMELSSLRSEDTDFYYCVNGNPWLAYWGQGTLVTVSS
VL: DIQLTQSPSTLSASVGDRVTITCRASESLDNYGIRFLTWFQQKPGKAPKLLMYAASNQGSGVPSRFSGSGSGTEFTLTISSLQPDDFATYYCQQTKEVPWSFGQGTKVEVK
notes: IgG; gemtuzumab VH combination #6 (S32H+Y54H)
B3: MYT1168 (antibody, V domains shown)
VH: EVQLVQSGAEVKKPGSSVKVSCKASGYTITDHNIHWVRQAPGQSLEWIGYIYPYNGHTDYNQKFKNRATLTVDNPTNTAYMELSSLRSEDTDFYYCVNGNPWLAYWGQGTLVTVSS
VL: DIQLTQSPSTLSASVGDRVTITCRASESLDNYGIRFLTWFQQKPGKAPKLLMYAASNQGSGVPSRFSGSGSGTEFTLTISSLQPDDFATYYCQQTKEVPWSFGQGTKVEVK
notes: IgG; gemtuzumab VH combination #7 (S32H+G57H)
B4: MYT1169 (antibody, V domains shown)
VH: EVQLVQSGAEVKKPGSSVKVSCKASGYTITDSNIHWVRQAPGQSLEWIGYIHPHNGGTDYNQKFKNRATLTVDNPTNTAYMELSSLRSEDTDFYYCVNGNPWLAYWGQGTLVTVSS
VL: DIQLTQSPSTLSASVGDRVTITCRASESLDNYGIRFLTWFQQKPGKAPKLLMYAASNQGSGVPSRFSGSGSGTEFTLTISSLQPDDFATYYCQQTKEVPWSFGQGTKVEVK
notes: IgG; gemtuzumab VH combination #8 (Y52H+Y54H)
B5: MYT1170 (antibody, V domains shown)
VH: EVQLVQSGAEVKKPGSSVKVSCKASGYTITDSNIHWVRQAPGQSLEWIGYIHPYNGHTDYNQKFKNRATLTVDNPTNTAYMELSSLRSEDTDFYYCVNGNPWLAYWGQGTLVTVSS
VL: DIQLTQSPSTLSASVGDRVTITCRASESLDNYGIRFLTWFQQKPGKAPKLLMYAASNQGSGVPSRFSGSGSGTEFTLTISSLQPDDFATYYCQQTKEVPWSFGQGTKVEVK
notes: IgG; gemtuzumab VH combination #9 (Y52H+G57H)
B6: MYT1171 (antibody, V domains shown)
VH: EVQLVQSGAEVKKPGSSVKVSCKASGYTITDSNIHWVRQAPGQSLEWIGYIYPHNGHTDYNQKFKNRATLTVDNPTNTAYMELSSLRSEDTDFYYCVNGNPWLAYWGQGTLVTVSS
VL: DIQLTQSPSTLSASVGDRVTITCRASESLDNYGIRFLTWFQQKPGKAPKLLMYAASNQGSGVPSRFSGSGSGTEFTLTISSLQPDDFATYYCQQTKEVPWSFGQGTKVEVK
notes: IgG; gemtuzumab VH combination #10 (Y54H+G57H)
B7: MYT1174 (antibody, V domains shown)
VH: EVQLVQSGAEVKKPGSSVKVSCKASGYTHTDHNIHWVRQAPGQSLEWIGYIYPYNGHTDYNQKFKNRATLTVDNPTNTAYMELSSLRSEDTDFYYCVNGNPWLAYWGQGTLVTVSS
VL: DIQLTQSPSTLSASVGDRVTITCRASESLDNYGIRFLTWFQQKPGKAPKLLMYAASNQGSGVPSRFSGSGSGTEFTLTISSLQPDDFATYYCQQTKEVPWSFGQGTKVEVK
notes: IgG; gemtuzumab VH combination #13 (I29H+S32H+G57H)
B8: MYT1176 (antibody, V domains shown)
VH: EVQLVQSGAEVKKPGSSVKVSCKASGYTHTDSNIHWVRQAPGQSLEWIGYIHPYNGHTDYNQKFKNRATLTVDNPTNTAYMELSSLRSEDTDFYYCVNGNPWLAYWGQGTLVTVSS
VL: DIQLTQSPSTLSASVGDRVTITCRASESLDNYGIRFLTWFQQKPGKAPKLLMYAASNQGSGVPSRFSGSGSGTEFTLTISSLQPDDFATYYCQQTKEVPWSFGQGTKVEVK
notes: IgG; gemtuzumab VH combination #15 (I29H+Y52H+G57H)
B9: MYT1177 (antibody, V domains shown)
VH: EVQLVQSGAEVKKPGSSVKVSCKASGYTHTDSNIHWVRQAPGQSLEWIGYIYPHNGHTDYNQKFKNRATLTVDNPTNTAYMELSSLRSEDTDFYYCVNGNPWLAYWGQGTLVTVSS
VL: DIQLTQSPSTLSASVGDRVTITCRASESLDNYGIRFLTWFQQKPGKAPKLLMYAASNQGSGVPSRFSGSGSGTEFTLTISSLQPDDFATYYCQQTKEVPWSFGQGTKVEVK
notes: IgG; gemtuzumab VH combination #16 (I29H+Y54H+G57H)
B10: MYT1178 (antibody, V domains shown)
VH: EVQLVQSGAEVKKPGSSVKVSCKASGYTITDHNIHWVRQAPGQSLEWIGYIHPHNGGTDYNQKFKNRATLTVDNPTNTAYMELSSLRSEDTDFYYCVNGNPWLAYWGQGTLVTVSS
VL: DIQLTQSPSTLSASVGDRVTITCRASESLDNYGIRFLTWFQQKPGKAPKLLMYAASNQGSGVPSRFSGSGSGTEFTLTISSLQPDDFATYYCQQTKEVPWSFGQGTKVEVK
notes: IgG; gemtuzumab VH combination #17 (S32H+Y52H+Y54H)
B11: MYT1179 (antibody, V domains shown)
VH: EVQLVQSGAEVKKPGSSVKVSCKASGYTITDHNIHWVRQAPGQSLEWIGYIHPYNGHTDYNQKFKNRATLTVDNPTNTAYMELSSLRSEDTDFYYCVNGNPWLAYWGQGTLVTVSS
VL: DIQLTQSPSTLSASVGDRVTITCRASESLDNYGIRFLTWFQQKPGKAPKLLMYAASNQGSGVPSRFSGSGSGTEFTLTISSLQPDDFATYYCQQTKEVPWSFGQGTKVEVK
notes: IgG; gemtuzumab VH combination #18 (S32H+Y52H+G57H)
B12: MYT1180 (antibody, V domains shown)
VH: EVQLVQSGAEVKKPGSSVKVSCKASGYTITDHNIHWVRQAPGQSLEWIGYIYPHNGHTDYNQKFKNRATLTVDNPTNTAYMELSSLRSEDTDFYYCVNGNPWLAYWGQGTLVTVSS
VL: DIQLTQSPSTLSASVGDRVTITCRASESLDNYGIRFLTWFQQKPGKAPKLLMYAASNQGSGVPSRFSGSGSGTEFTLTISSLQPDDFATYYCQQTKEVPWSFGQGTKVEVK
notes: IgG; gemtuzumab VH combination #19 (S32H+Y54H+G57H)
B13: MYT1181 (antibody, V domains shown)
VH: EVQLVQSGAEVKKPGSSVKVSCKASGYTITDSNIHWVRQAPGQSLEWIGYIHPHNGHTDYNQKFKNRATLTVDNPTNTAYMELSSLRSEDTDFYYCVNGNPWLAYWGQGTLVTVSS
VL: DIQLTQSPSTLSASVGDRVTITCRASESLDNYGIRFLTWFQQKPGKAPKLLMYAASNQGSGVPSRFSGSGSGTEFTLTISSLQPDDFATYYCQQTKEVPWSFGQGTKVEVK
notes: IgG; gemtuzumab VH combination #20 (Y52H+Y54H+G57H)
B14: MYT1590 (antibody, V domains shown)
VH: EVQLVQSGAEVKKPGSSVKVSCKASGYTITDSNIHWVRQAPGQSLEWIGYIYPYNGGTDYNQKFKNRATLTVDNPTNTAYMELSSLRSEDTDFYYCVNGNPWLAYWGQGTLVTVSS
VL: DIQLTQSPSTLSASVGDRVTITCHASESLDNYGIRFLTWFQQKPGKAPKLLMYAASNQGSGVPSRFSGSGSGTEFTLTISSLQPDDFATYYCQQTKEVPWSFGQGTKVEVK
notes: IgG; gemtuzumab VL variant #1 (R24H)
B15: MYT1593 (antibody, V domains shown)
VH: EVQLVQSGAEVKKPGSSVKVSCKASGYTITDSNIHWVRQAPGQSLEWIGYIYPYNGGTDYNQKFKNRATLTVDNPTNTAYMELSSLRSEDTDFYYCVNGNPWLAYWGQGTLVTVSS
VL: DIQLTQSPSTLSASVGDRVTITCRASHSLDNYGIRFLTWFQQKPGKAPKLLMYAASNQGSGVPSRFSGSGSGTEFTLTISSLQPDDFATYYCQQTKEVPWSFGQGTKVEVK
notes: IgG; gemtuzumab VL variant #4 (E27H)
B16: MYT1594 (antibody, V domains shown)
VH: EVQLVQSGAEVKKPGSSVKVSCKASGYTITDSNIHWVRQAPGQSLEWIGYIYPYNGGTDYNQKFKNRATLTVDNPTNTAYMELSSLRSEDTDFYYCVNGNPWLAYWGQGTLVTVSS
VL: DIQLTQSPSTLSASVGDRVTITCRASEHLDNYGIRFLTWFQQKPGKAPKLLMYAASNQGSGVPSRFSGSGSGTEFTLTISSLQPDDFATYYCQQTKEVPWSFGQGTKVEVK
notes: IgG; gemtuzumab VL variant #5 (S28H)
B17: MYT1596 (antibody, V domains shown)
VH: EVQLVQSGAEVKKPGSSVKVSCKASGYTITDSNIHWVRQAPGQSLEWIGYIYPYNGGTDYNQKFKNRATLTVDNPTNTAYMELSSLRSEDTDFYYCVNGNPWLAYWGQGTLVTVSS
VL: DIQLTQSPSTLSASVGDRVTITCRASESLHNYGIRFLTWFQQKPGKAPKLLMYAASNQGSGVPSRFSGSGSGTEFTLTISSLQPDDFATYYCQQTKEVPWSFGQGTKVEVK
notes: IgG; gemtuzumab VL variant #7 (D30H)
B18: MYT1597 (antibody, V domains shown)
VH: EVQLVQSGAEVKKPGSSVKVSCKASGYTITDSNIHWVRQAPGQSLEWIGYIYPYNGGTDYNQKFKNRATLTVDNPTNTAYMELSSLRSEDTDFYYCVNGNPWLAYWGQGTLVTVSS
VL: DIQLTQSPSTLSASVGDRVTITCRASESLDHYGIRFLTWFQQKPGKAPKLLMYAASNQGSGVPSRFSGSGSGTEFTLTISSLQPDDFATYYCQQTKEVPWSFGQGTKVEVK
notes: IgG; gemtuzumab VL variant #8 (N31H)
B19: MYT1598 (antibody, V domains shown)
VH: EVQLVQSGAEVKKPGSSVKVSCKASGYTITDSNIHWVRQAPGQSLEWIGYIYPYNGGTDYNQKFKNRATLTVDNPTNTAYMELSSLRSEDTDFYYCVNGNPWLAYWGQGTLVTVSS
VL: DIQLTQSPSTLSASVGDRVTITCRASESLDNHGIRFLTWFQQKPGKAPKLLMYAASNQGSGVPSRFSGSGSGTEFTLTISSLQPDDFATYYCQQTKEVPWSFGQGTKVEVK
notes: IgG; gemtuzumab VL variant #9 (Y32H)
B20: MYT1599 (antibody, V domains shown)
VH: EVQLVQSGAEVKKPGSSVKVSCKASGYTITDSNIHWVRQAPGQSLEWIGYIYPYNGGTDYNQKFKNRATLTVDNPTNTAYMELSSLRSEDTDFYYCVNGNPWLAYWGQGTLVTVSS
VL: DIQLTQSPSTLSASVGDRVTITCRASESLDNYHIRFLTWFQQKPGKAPKLLMYAASNQGSGVPSRFSGSGSGTEFTLTISSLQPDDFATYYCQQTKEVPWSFGQGTKVEVK
notes: IgG; gemtuzumab VL variant #10 (G33H)
B21: MYT1601 (antibody, V domains shown)
VH: EVQLVQSGAEVKKPGSSVKVSCKASGYTITDSNIHWVRQAPGQSLEWIGYIYPYNGGTDYNQKFKNRATLTVDNPTNTAYMELSSLRSEDTDFYYCVNGNPWLAYWGQGTLVTVSS
VL: DIQLTQSPSTLSASVGDRVTITCRASESLDNYGIHFLTWFQQKPGKAPKLLMYAASNQGSGVPSRFSGSGSGTEFTLTISSLQPDDFATYYCQQTKEVPWSFGQGTKVEVK
notes: IgG; gemtuzumab VL variant #12 (R35H)
B22: MYT1602 (antibody, V domains shown)
VH: EVQLVQSGAEVKKPGSSVKVSCKASGYTITDSNIHWVRQAPGQSLEWIGYIYPYNGGTDYNQKFKNRATLTVDNPTNTAYMELSSLRSEDTDFYYCVNGNPWLAYWGQGTLVTVSS
VL: DIQLTQSPSTLSASVGDRVTITCRASESLDNYGIRHLTWFQQKPGKAPKLLMYAASNQGSGVPSRFSGSGSGTEFTLTISSLQPDDFATYYCQQTKEVPWSFGQGTKVEVK
notes: IgG; gemtuzumab VL variant #13 (F36H)

These binders were tested against CD33 (Sino Biological, Cat #12238-H08H) (UniProt P20138 18-259) (assay: BLI, IgG captured on anti-human Fc sensor, 50 nM CD33, pH 7.4 vs pH 5.4).
Chain of CD33 (Sino Biological, Cat #12238-H08H) (P20138 18-259 limits assumed): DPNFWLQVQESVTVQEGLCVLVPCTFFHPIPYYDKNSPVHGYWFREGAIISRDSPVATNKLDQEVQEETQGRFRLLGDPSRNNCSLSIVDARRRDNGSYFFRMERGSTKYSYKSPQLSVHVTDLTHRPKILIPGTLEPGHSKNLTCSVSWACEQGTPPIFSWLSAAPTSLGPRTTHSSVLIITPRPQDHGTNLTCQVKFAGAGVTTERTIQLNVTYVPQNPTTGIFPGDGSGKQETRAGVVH

Binding result, binds:
B1
B2
B3
B4
B5
B6
B7
B8
B9
B10
B11
B12
B13
B14
B15
B16
B17
B18
B19
B20
B21
B22
